From patent publication US20130109581A1, “POSITIVELY CHARGED SPECIES AS BINDING REAGENTS IN THE SEPARATION OF PROTEIN AGGREGATES FROM MONOMERS” (priority 2009, published 2013)
Read-outs that look alike come from different tables or passages of the source.

Assays:
Abeta 1-40 monomer = Abeta 1-40 monomer (UniProt P05067); assay: MPA bead capture, Abeta 1-40 read-out of the CSF sample (noise)
[1] = biological target: Abeta 1-40 monomer, P05067; assay: as above
[2] = biological target: Abeta 1-42 globulomer, P05067; assay: 42 (globulomer) RLU over 40 (Abeta 1-40 monomer) RLU
[3] = biological target: Abeta 1-42 globulomer, P05067; assay: MPA bead capture, CSF + 1 ng/mL globulomer, Abeta immunoassay
Abeta42 fibrils, P05067 = assay: MPA, serial dilutions in CSF, LoD = 2x over background
[4] = biological target: ASPD (Abeta42 aggregate), P05067; assay: as above
[5] = biological target: ADDL (Abeta42 aggregate), P05067; assay: as above
[6] = biological target: Abeta (1-42) aggregates from Alzheimer's Disease Brain Homogenate (human), P05067; assay: as above
[7] = remark: other sources report otherwise

Binder: IRYVTHQYILWP (modifications not checked) […]
- average RLU (40) (Abeta 1-40 monomer): 348 RLU
- average RLU (40) [1]: 1010 RLU
- 42:40 ratio [2]: 3.2
- average RLU (42) [3]: 3240 RLU

Binder: ANFFAHSS (modifications not checked)
- 42:40 ratio [2]: 1.8
- average RLU (42) [3]: 994 RLU

Binder: AAKKAA (modifications not checked)
- 42:40 ratio [2]: 1.1
- average RLU (42) [3]: 160 RLU

Binder: FKFSLFSG (modifications not checked)
- average RLU (40) [1]: 2010 RLU
- 42:40 ratio [2]: 1.5
- average RLU (42) [3]: 3080 RLU

Binder: AAKKKA (modifications not checked)
- 42:40 ratio [2]: 1.6
- average RLU (42) [3]: 247 RLU

Binder: KKKFKF (modifications not checked) [KKKFKF-link]
- 42:40 ratio [2]: 3.9
- average RLU (42) [3]: 748 RLU

Binder: DFKLNFKF (modifications not checked)
- 42:40 ratio [2]: 2
- average RLU (42) [3]: 516 RLU

B1: Ac-FKFKKK-Link (Ac-FKFKKK-Ahx-Ahx-Cys-NH2) (peptide)
peptide: FKFKKK
HELM: PEPTIDE1{[ac].F.K.F.K.K.K.[O=C(CCCCCN[*:1])[*:2]].[O=C(CCCCCN[*:1])[*:2]].C.[am]}$$$$V2.0
SMILES: CC(=O)N[C@@H](Cc1ccccc1)C(=O)N[C@@H](CCCCN)C(=O)N[C@@H](Cc1ccccc1)C(=O)N[C@@H](CCCCN)C(=O)N[C@@H](CCCCN)C(=O)N[C@@H](CCCCN)C(=O)NCCCCCC(=O)NCCCCCC(=O)N[C@@H](CS)C(N)=O
- 42:40 ratio [2]: 5.7
- average RLU (42) [3]: 2000 RLU
- LoD (Abeta42 fibrils, P05067): 100 pg/mL
- LoD [4]: 300 pg/mL
- LoD [5]: 300 pg/mL
- LoD [6]: < 10 pg/mL

Binder: KKKKKK (modifications not checked)
- 42:40 ratio [2, 7]: 3.3
- average RLU (42) [3, 7]: 658 RLU

Binder: AAAKAA (modifications not checked)
- 42:40 ratio [2]: 0.8
- average RLU (42) [3]: 114 RLU

Binder: AKKKKA (modifications not checked)
- 42:40 ratio [2]: 2.1
- average RLU (42) [3]: 322 RLU

Binder: KKKFKF (modifications not checked) [link-KKKFKF]
- 42:40 ratio [2]: 5.9
- average RLU (42) [3]: 1650 RLU

Binder: FKFNLFSG (modifications not checked)
- average RLU (40) [1]: 1330 RLU
- 42:40 ratio [2]: 2.4
- average RLU (42) [3]: 3230 RLU

Binder: FKFKKK (modifications not checked) [link-FKFKKK]
- 42:40 ratio [2]: 4.1
- average RLU (42) [3]: 808 RLU

Binder: AKKKKK (modifications not checked)
- 42:40 ratio [2]: 2.5
- average RLU (42) [3]: 442 RLU
